Ends that are not written are not given here. FAM = 5(6)-carboxyfluorescein; Ahx = NCCCCCC(=O)O
Biological target: T1, recombinant human macrophage mannose receptor rhMMR/CD206 (Homo sapiens, UniProt P22897)
T1 construct: purchased R&D Systems 2534-MR-050
T1 sequence (P22897 19-1456): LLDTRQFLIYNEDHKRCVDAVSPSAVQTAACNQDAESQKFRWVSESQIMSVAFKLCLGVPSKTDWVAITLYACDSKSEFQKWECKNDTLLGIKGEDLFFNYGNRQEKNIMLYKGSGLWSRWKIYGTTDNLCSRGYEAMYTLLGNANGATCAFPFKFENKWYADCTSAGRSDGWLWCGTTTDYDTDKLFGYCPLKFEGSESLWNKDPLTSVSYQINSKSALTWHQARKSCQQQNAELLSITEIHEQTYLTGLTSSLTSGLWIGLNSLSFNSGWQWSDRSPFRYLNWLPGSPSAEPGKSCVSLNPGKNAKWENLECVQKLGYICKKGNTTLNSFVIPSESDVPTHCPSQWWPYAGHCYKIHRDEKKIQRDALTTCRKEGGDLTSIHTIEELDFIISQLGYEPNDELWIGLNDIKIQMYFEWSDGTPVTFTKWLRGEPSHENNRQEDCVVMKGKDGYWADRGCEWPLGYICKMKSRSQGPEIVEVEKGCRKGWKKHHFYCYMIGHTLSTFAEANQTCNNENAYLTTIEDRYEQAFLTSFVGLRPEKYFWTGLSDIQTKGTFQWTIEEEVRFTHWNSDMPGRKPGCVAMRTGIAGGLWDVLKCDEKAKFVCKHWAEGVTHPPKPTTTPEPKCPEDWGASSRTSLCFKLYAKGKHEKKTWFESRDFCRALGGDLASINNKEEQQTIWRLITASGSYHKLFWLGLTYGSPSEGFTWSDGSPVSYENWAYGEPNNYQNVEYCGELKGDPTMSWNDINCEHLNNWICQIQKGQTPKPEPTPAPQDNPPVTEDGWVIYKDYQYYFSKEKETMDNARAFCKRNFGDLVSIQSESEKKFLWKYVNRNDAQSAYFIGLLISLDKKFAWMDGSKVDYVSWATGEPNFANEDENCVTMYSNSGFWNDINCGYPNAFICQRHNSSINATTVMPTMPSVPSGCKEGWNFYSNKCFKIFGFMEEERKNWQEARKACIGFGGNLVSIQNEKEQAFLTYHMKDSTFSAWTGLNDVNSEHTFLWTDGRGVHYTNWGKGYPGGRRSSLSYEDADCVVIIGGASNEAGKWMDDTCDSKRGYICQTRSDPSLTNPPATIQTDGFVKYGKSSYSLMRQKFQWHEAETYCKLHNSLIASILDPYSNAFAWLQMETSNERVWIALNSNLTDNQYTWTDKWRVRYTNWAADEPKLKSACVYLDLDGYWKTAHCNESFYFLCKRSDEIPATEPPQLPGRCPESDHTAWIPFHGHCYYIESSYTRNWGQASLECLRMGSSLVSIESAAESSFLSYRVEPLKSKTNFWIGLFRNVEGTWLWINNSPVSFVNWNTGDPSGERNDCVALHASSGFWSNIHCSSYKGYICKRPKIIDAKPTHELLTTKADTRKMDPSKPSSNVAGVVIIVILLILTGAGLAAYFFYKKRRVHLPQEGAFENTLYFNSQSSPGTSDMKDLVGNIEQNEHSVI
Assay: Fluorescence anisotropy assay with human recombinant CD206
Format: binding
Conditions: 100 nM FAM peptide, 0.4 μM protein
Protocol: Time course of fluorescence anisotropy of FAM-mUNO during incubation with human recombinant CD206 (black curve, 3001) or with CD163 (red curve, 3003). The concentration of FAM-mUNO was 100 nM and the concentration of CD206 and CD163 was […]. The anisotropy for the FAM-mUNO alone is shown in the green curve 3004.
Fluorescence anisotropy was also carried out using recombinant human macrophage mannose receptor rhMMR/CD206 to determine whether UNO peptide interactions with mouse CD206 carried over to human CD206. […]
In all experiments, FA signal measurements were done under pseudo first-order conditions with 50 nM singly labelled FAM peptides and 1 μM proteins. […] Assays were carried out in kinetic mode in a total volume of 30 μl at 25° C. on the PHERAstar (BMG Labtech, Germany) microplate reader using an optical module with excitation and emission filters of 485 nm (slit 10 nm) and 520 nm (slit 10 nm), respectively. […] The background fluorescence (receptor and buffer components in the absence of fluorescent ligand) was subtracted independently from all intensity channels. FA signals at time t after initiation of binding reaction was calculated as parameters r(t) from the equation: […]

FAM-UNO: FAM-labeled UNO peptide CSPGAKVRC (SEQ ID NO: 1); 5(6)-carboxyfluorescein with 6-aminohexanoic acid spacer at the N-terminus ({FAM-Ahx}-CSPGAKVRC; cysteine pairing not given here)
change in fluorescence anisotropy (interaction) with human recombinant CD206: did not cause a change in the fluorescence anisotropy
